# Legend:
# [1] = biological target: HOPS (homotypic fusion and vacuole protein sorting complex) (S. cerevisiae, UniProt P12868;Q03308;P27801;P20795;Q07468;P38959); experiment: liposome floatation
# [2] = biological target: phospho-HOPS (HOPS phosphorylated by the vacuolar kinase Yck3p) (S. cerevisiae, UniProt P12868;Q03308;P27801;P20795;Q07468;P38959); experiment: liposome floatation
binder,measurement,setting,value
Ypt7p:GTP (vacuolar Rab-family GTPase Ypt7p in its GTP-bound state) (natural protein) MSSRKKNILKVIILGDSGVGKTSLMHRYVNDKYSQQYKATIGADFLTKEVTVDGDKVATMQVWDTAGQERFQSLGVAFYRGADCCVLVYDVTNASSFENIKSWRDEFLVHANVNSPETFPFVILGNKIDAEESKKIVSEKSAQELAKSLGDIPLFLTSAKNAINVDTAFEEIARSALQQNQADTEAFEDDYNDAINIRLDGENNSCSC,binding result,[1],binds
same,binding result,[2],binds

# — publication PMC4294677 (Molecular Biology of the Cell, 2015)
